The series can be described thus: label from the status in PepcDB records.
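Also: failed if final PepcDB status was selected cloned or expressed and not failed if soluble or beyond.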

As to “MSYDVIVRNGLWFDGTGRPPQVRTLGIRDGVVATVSAKPLDETGCPEVIDAGGKWVVPGFIDVHTHYDAEVLLDPGLRESVRHGVTTVLLGMCSLSTVYSDAEDAADLFSRVEAVPRQFVLGALESRKTWSNPAEYVAAIDALPLGPNIASLLGHSDLRASVLGLDRATTRGVVPTDDELETMADRLDAALDAGMLGMSGMDAAIDKLDGDRFRSRALPSTFATWRERRRLIKVLRKRGRILQSAPNVAKAQEALNFFLESSSLFGRRRGVRMSLLVSADAKSSPGAARVIGMGTRLLNKTLDAKVRFQHLPVPFELYSDGIDLPVFEEFGAGTAALHLRDQLERNKLLADPEYRRRFRRSFDRRKLGPTLWHRDFHDATIVECPDESLIGKTFGRIADERGIHPLDAFLDVLVDNGEKNVRWTTIVANHRPKVLDQLANDPAVHMGFSDAGAHLRNMAFYNYPLRLLKRVRDAQLSGRPFLTTERAVYRLTAEVADWFGVDAGTLREGDRADFVVIDPNCLNSDVDAYHEETVPFYGGLSRMVNRNDDAVVATAVNGTVVFGKGEFRDGYGDTVKSGRYLRAGADSRLKTAVLEHHHHHH”, the protein production result is “failed”. In the case of “MSYIRLVTWNVDFDSPFNYERFTAIAEEVLGAKPGVVLFQEVSDLPFSSWQGEKEQSTITSARQHDSCYKVLLRRLEALYEPIVDLGLPSEQAYFVMAFVDRSKYRVHGYEYTEFENSSQGRGLLAIQLEPRDMCGDFKFRVLTSHLESGTACSEVRVQQMRQIAYEMLEGDTPAIFAGDTNFREKEKAGFEKEIAKAIGSEEMRLFDLFVEVGEPSHLRFTWDTRTNTNKVKELPPRFRPRARFDQVLFTRPFQANAMRLLGRERLGHAVFPSDHYGIYGELRF” it was “failed”; in that of “MSYSVMFALLLLTPLLFSLLCFACRKRRLSATRTVTVLHSLGITLLLILALWVVQTAADAGEIFAAGLWLHIDGLGGLFLAILGVIGFLTGIYSIGYMRHEVAHGELSPVTLCDYYGFFHLFLFTMLLVVTSNNLIVMWAAIEATTLSSAFLVGIYGQRSSLEAAWKYIIICTVGVAFGLFGTVLVYANAASVMPQAEMAIFWSEVLKQSSLLDPTLMLLAFVFLLIGFGTKTGLFPMHAWLPDAHSEAPSPVSALLSAVLLNCALLVLIRYYIIICQAIGSDFPNRLLLIFGMLSVAVAAFFILVQRDIKRLLAYSSVENMGLVAVELGIGGPLGIFAALLHILNHSLAKTLLFCGSGNVLLKYGTRDLNVVCGMLKIMPFTAVLFGGGALALAGMPPFNIFLSEFMTITAGLARNHLLIIVLLLLLLTLVLAGLVRMAARVLMAKPPQAVNRGDLGWLTTSPMVILLVMMLAMGTHIPQPVIRILAGASTIVLSGTHDLPAQRSTWHDFLPSGTASVSEKHSER”, “failed”. Turning to “MTAAIRRTVTFPGVSMARLKSMLGAYNGHLKQIEQRLDVQITHRGDAFYIDGDIDAVERAESLLQRLYNESETSDQISADILHLMIQGSQTDRELMDDSEQEHTGLDNVWLQTPKGRINPRGTNQKRYVQRILQSDISFGIGPAGTGKTYLAVAAAVDMLERNEIQRILLVRPAVEAGEKLGFLPGDLAQKIDPYLRPLYDALYEMLGFEKVAKLIERQVIEVAPLAYMRGRTLNHSFVILDEAQNTTPEQMKMFLTRLGFGSRAVITGDITQVDLPRGQQSGLAHALRVLEPIKEIHITRFHSRDVVRHQLVQKIVEAYEGWDSEQNRLSAEARAERKARQEALMSEHDAAADAQHQEA”, the protein production entry is recorded as “failed”.

For the origin of these results see a protein production outcome set (Wang et al. 2014).
